PMC2647743 (Bioconjugate chemistry, 2008)
*: point of attachment. DOTA = O=C(O)CN1CCN(CC(=O)O)CCN(CC(=O)*)CCN(CC(=O)O)CC1; Aoc = NCCCCCCCC(=O)O

Biological target: BB2 receptor (gastrin-releasing peptide receptor) (human (endogenous in PC-3), UniProt P30550 1-384)
Test: radioligand binding

BB2 receptor (gastrin-releasing peptide receptor), sequence (P30550 whole entry): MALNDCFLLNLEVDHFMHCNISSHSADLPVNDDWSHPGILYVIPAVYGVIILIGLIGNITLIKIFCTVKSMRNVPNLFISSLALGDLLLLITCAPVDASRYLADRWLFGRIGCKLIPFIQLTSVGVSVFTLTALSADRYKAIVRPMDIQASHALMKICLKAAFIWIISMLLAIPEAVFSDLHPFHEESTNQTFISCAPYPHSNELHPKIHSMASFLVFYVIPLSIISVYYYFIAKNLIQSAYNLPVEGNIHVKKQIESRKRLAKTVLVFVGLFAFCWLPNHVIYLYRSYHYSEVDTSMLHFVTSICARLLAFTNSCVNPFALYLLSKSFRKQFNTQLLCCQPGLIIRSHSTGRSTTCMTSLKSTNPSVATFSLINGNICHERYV

Binder | IC50
{DOTA-Aoc}-HMGWLAQV-NH2 (also: In complex of DOTA) [In-DOTA-8-AOC-NONSENSE] | > 10 µM
{DOTA-Aoc}-HMGWLAQV-NH2 (SMILES CSCC[C@H](NC(=O)[C@H](Cc1c[nH]cn1)NC(=O)CCCCCCCNC(=O)CN1CCN(CC(=O)O)CCN(CC(=O)O)CCN(CC(=O)O)CC1)C(=O)NCC(=O)N[C@@H](Cc1c[nH]c2ccccc12)C(=O)N[C@@H](CC(C)C)C(=O)N[C@@H](C)C(=O)N[C@@H](CCC(N)=O)C(=O)N[C@H](C(N)=O)C(C)C) [DOTA-8-AOC-NONSENSE] | > 10 µM
